{"source": "paper PMC5892705", "about": "(Science signaling, 2017)", "binders": {"B1": {"name": "[Se-Se]-OT-OH (peptide)", "chain": "UYIQNUPLG", "modifications": "selenocysteine at positions 1 and 6, joined by a diselenide bond; C-terminal acid instead of the amide"}}, "key": {"murine oxytocin receptor": {"target": "T1, murine oxytocin receptor (mouse, UniProt P97926 1-388)", "T1 sequence": "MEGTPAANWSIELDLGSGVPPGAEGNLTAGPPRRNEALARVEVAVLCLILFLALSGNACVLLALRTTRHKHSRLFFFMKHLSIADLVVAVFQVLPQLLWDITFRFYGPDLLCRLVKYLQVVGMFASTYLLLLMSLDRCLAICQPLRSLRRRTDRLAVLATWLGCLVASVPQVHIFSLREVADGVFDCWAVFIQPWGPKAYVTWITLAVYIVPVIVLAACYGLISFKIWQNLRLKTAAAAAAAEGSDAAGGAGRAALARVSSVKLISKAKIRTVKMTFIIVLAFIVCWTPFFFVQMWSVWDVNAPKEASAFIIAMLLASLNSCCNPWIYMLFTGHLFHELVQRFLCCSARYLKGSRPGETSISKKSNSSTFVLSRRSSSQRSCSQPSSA", "experiment": "cell-based or functional assay"}, "human oxytocin receptor": {"target": "T2, human oxytocin receptor (human, UniProt P30559 1-389)", "T2 sequence": "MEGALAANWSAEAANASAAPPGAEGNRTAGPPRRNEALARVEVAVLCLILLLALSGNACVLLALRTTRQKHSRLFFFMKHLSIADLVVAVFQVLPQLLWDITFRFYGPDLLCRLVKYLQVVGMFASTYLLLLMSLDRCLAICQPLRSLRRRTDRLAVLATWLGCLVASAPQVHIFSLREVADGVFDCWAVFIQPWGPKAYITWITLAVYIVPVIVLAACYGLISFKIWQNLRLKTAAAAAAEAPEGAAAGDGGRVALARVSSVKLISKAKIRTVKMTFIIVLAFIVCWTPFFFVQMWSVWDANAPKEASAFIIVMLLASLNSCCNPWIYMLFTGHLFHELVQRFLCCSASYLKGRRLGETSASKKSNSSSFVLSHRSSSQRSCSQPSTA", "experiment": "cell-based or functional assay"}, "[1]": {"target": "human vasopressin V1a receptor (human, UniProt P37288 1-418)", "sequence (P37288 whole entry)": "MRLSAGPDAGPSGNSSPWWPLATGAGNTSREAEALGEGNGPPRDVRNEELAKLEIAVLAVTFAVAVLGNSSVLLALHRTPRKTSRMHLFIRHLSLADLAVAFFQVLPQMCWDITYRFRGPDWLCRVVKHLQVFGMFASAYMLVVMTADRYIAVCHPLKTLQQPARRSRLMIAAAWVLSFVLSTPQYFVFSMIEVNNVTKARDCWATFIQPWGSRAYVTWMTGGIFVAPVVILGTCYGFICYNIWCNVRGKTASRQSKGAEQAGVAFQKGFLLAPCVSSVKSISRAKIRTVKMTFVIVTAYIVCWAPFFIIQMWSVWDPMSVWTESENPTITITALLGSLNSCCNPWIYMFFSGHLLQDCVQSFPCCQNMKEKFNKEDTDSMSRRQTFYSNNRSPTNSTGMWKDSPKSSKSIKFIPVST", "experiment": "cell-based or functional assay"}, "[2]": {"target": "murine vasopressin V2 receptor (mouse, UniProt O88721 1-371)", "sequence (O88721 whole entry)": "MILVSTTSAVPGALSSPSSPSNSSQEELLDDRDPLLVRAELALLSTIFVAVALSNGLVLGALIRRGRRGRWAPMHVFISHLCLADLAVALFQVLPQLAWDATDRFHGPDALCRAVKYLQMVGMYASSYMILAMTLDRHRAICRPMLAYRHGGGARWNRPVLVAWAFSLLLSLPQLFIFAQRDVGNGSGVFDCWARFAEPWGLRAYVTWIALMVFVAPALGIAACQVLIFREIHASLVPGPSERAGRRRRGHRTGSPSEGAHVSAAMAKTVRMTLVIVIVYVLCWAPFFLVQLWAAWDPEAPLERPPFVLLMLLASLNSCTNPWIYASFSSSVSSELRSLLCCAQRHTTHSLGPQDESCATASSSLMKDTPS", "experiment": "radioligand binding"}}}
{"binder": "B1", "values": [{"measurement": "HTRF IP1 accumulation in transfected HEK293 cells, Emax", "setting": "murine oxytocin receptor", "result": 43, "unit": "%"}, {"measurement": "HTRF IP1 accumulation in transfected COS-1 cells, EC50", "setting": "human oxytocin receptor", "result": 38, "unit": "nM"}, {"measurement": "tissue bath, contraction amplitude of strips of pregnant human myometrium, EC50", "setting": "human oxytocin receptor", "result": 5.89, "unit": "nM"}, {"measurement": "FLIPR Ca2+ mobilization, EC50", "setting": "[1]", "result": "> 10000", "unit": "nM"}, {"measurement": "Ki1 (bi-phasic binding curve)", "setting": "[2]", "result": 0.71, "unit": "nM"}]}
